# Experimental data from patent publication US20240010683A1, “Peptide Inhibitors of Human Mitochondrial Fission Protein 1 and Methods of Use” (The Medical College of Wisconsin, Inc., priority 2020, published 2024).
# “And” between values parts separate entries of the source, which are not always exact repeats. Identical values can stand only once.
# T1: recombinant human mitochondrial fission protein 1 (Fis1) (human), Q9Y3D6
# T1 chain: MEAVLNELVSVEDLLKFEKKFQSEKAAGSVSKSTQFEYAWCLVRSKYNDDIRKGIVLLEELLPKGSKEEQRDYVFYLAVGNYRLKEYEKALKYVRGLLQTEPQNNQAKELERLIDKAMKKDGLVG
# Target: T1, recombinant human mitochondrial fission …
binder,measurement,value
SHKHDPLPYPHFLL (modifications not checked) [pep213],Kd,7 µM and 3.3 µM
